AmyQ secretion efficiency data for 81 sequences are collected here from the supplement of paper PMC9942255.

“And” between values parts separate entries of the source, which are not always exact repeats. Identical values can stand only once.

This series relates to Bacillus subtilis DB104 (SP-AmyQ fusion secretion). Nature of the series: AmyQ secretion efficiency, weighted average sort bin (1 = best secretion, 10 = worst) (bin number (weighted average, 1-10)); higher = lower secretion efficiency. Put shortly:
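Designed signal peptides were fused to mature AmyQ and expressed from the amyE locus in B. subtilis DB104, and this library was loaded at about 0.3 cells per ~65 nL alginate bead together with fluorescein-starch. After about 13 h of growth at room temperature and nile red staining, occupied beads were split into 10 equally populated bins by green/red fluorescence ratio using large-particle flow cytometry. Amplicons from every bin were Illumina-sequenced. The secretion score is the average bin number weighted by read frequency and normalised to beads per bin, excluding low-abundance sequences.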

MTKLKMLSMLTVMIASLFIFSSQALLVQY yielded an AmyQ secretion efficiency of 6.07.
With MRNLTKTSLLLAGLCTAAIMVFVIHASAEES the figure was 5.76; with MRKTIFAFLTGLMMFGTITAMSASPD, 5.39; with MFNRLFRVCFLAALIMAFVFTLPNSVYAQKP, 2.33.
MKRMIVRMTLPLLIVCLAFSDFSASARAASE showed an AmyQ secretion efficiency of 2.61.
As for MLCVMMLLFSAIASFPVSVQAKDQ, the figure is 3.83.
Sequence MKVCQKSIVRFLVSLIIGTFVISVPFMANAQSE registered an AmyQ secretion efficiency of 1.52.
Turning to MKWMCSICCAAVLLAGGADQAEAV, the AmyQ secretion efficiency was 2.46.
As for MSPVFPLILSAVLFLSCFFGARQTEASASKR, the figure is 2.21; as for “MIQKRKRTVSFRLVLMCTLLFVSLPITKTSAVNG [wt_amyQ]”, 1.16; as for MKIRKIKKKKRKSFGMLISAVPALAAGT, 7.53.
With MKKKQVMGYTTAAAGLGLTALHSAPAAKAAPL, the AmyQ secretion efficiency was determined as 7.28.
As for MKIRKILLSSALSFGMLISAVPALAAGR, the figure is 2.62; as for MKKRTIQVMIMFTLLLTMAFSADAADS, 5.
The sequence MKKWMITIAMLILAGIALFVFISPYKSHKT came in with an AmyQ secretion efficiency of 6.74.
MKQGKFSVFLILLLMLTLVVAPKEKEEAASS registered an AmyQ secretion efficiency of 7.98.
With MRSYIKVLTMCFLGLILFVKRRKRRALADNS the figure was 7.48.
The sequence MKKWIYVVLVLSIAGIGGFSVHNASS showed an AmyQ secretion efficiency of 5.06.
On to MKKWIYIMSFMIVVLVLSIAGIGGFSVHAASS, for which the AmyQ secretion efficiency was found to be 4.
With MKKAFILSAAAAVGLFTFGGVQQASCKEL the figure was 2.66; with MKLAKRVSALTPSTTLAITDKAKEL, 7.38; with MAIIIAIIAAVIVIAALITFNVPNASPG, 6.07.
Turning to MLKKIALTLCPAIVGSLLFFTAPESAHVS, the AmyQ secretion efficiency turned out to be 5.94.
MKKKLAAGLTASAIVGTTLVVTPAEGATI had an AmyQ secretion efficiency of 3.33.
On to MFKKHTISLLIIFLLASAVLAKPIEAHTD, for which the AmyQ secretion efficiency came to 1.8.
In turn, MKSCKQLIVCSLAAILLLIPSVWFAADS returned an AmyQ secretion efficiency of 4.55.
For MKKKQVMLALTAAAGLGLTALHSAPAAKEAPL, the AmyQ secretion efficiency was 6.66.
MRPVFPLILSAVLFLSCFFGARQTEASAEEE registered an AmyQ secretion efficiency of 2.93.
For MKLSVKIAGVLTVAAAAMTAKMYATSKGN, the AmyQ secretion efficiency was 6.78.
Sequence MKKLVLCVSILAVILSGVQLTQLS gave an AmyQ secretion efficiency of 5.61.
In the case of MFNRLFRVCFLAALIMAFTLPNSSYAQKP, the AmyQ secretion efficiency is 2.08.
Sequence MKRKLLSSLAISALSLGLLVSAPTASFAATR gave an AmyQ secretion efficiency of 2.21.
In turn, MRNLTKTSLLLAGLCTAAQMVFVTHGSAEES registered an AmyQ secretion efficiency of 4.68.
In the case of MRKKCSTCRWILVLLLSCLSGKSAYAATS, the AmyQ secretion efficiency stood at 5.49.
Sequence MKLAKRVRKLTPSTTLAITAKAKEL showed an AmyQ secretion efficiency of 8.89.
Take MKKRKVLMAFIICLSLILSVLAAPPSGAKAESV: the AmyQ secretion efficiency worked out at 1.28.
With MKRKLLSSLAISALSLGLLVSAPTASFVAES the figure was 6.45; with MGLGLLLSVAVAASFMSLSISLPGVQAAEG, 2.94; with MHLIRAAGAVCLAVVLIAGCRFNEDQHQAESENT, 3.48.
As for MKRTWNVCLTALLSVLLVAGSVTLVAAPFHAEAKKP, the figure is 2.5.
The sequence MKKGIIRFLLVSFVLFFALSTGITGAQAAPA showed an AmyQ secretion efficiency of 2.21.
As for MRSYIKVLTMCFLGLILFVVIATVSAIPTALADNS, the AmyQ secretion efficiency was found to be 2.02.
With MKKKLAAGLTASAIVGTTLVVTPAESATI, the AmyQ secretion efficiency stood at 3.72.
With MKRSINSIFITCLLITLLTMGGMIASPASAAGT the figure was 1.88.
As for MLKRTSFVSSLRRKRKKLLSILLPSGQAHAQSA, the figure is 6.99; as for MHLIRAAGAVCLAVVLIAGCRFNEDQHQFEGENT, 5.53; as for MKKLLAAGIIGLLTVFIAVPSFAAEK, 2.33.
Take MSTMIVRMTLPLLIVCLAFSSFSASARAASE: the AmyQ secretion efficiency is 2.3.
With MKVLLSALLLLLFAFEPSHSGKKL, the AmyQ secretion efficiency worked out at 6.88.
Sequence MKKIVSILFMFGLVMGFSQFQPSTMFAADK had an AmyQ secretion efficiency of 2.83.
For the sequence MKKWIYVRRVLSIAGIGGFSVHAASS, the AmyQ secretion efficiency worked out at 7.43.
Take MKKGIIRQSQSQTGLFFALSTGITGVQAAPA: the AmyQ secretion efficiency worked out at 7.14.
In turn, MKRCKRRRLIVCSLAAILLLIPSVSFAADS had an AmyQ secretion efficiency of 3.97.
In the case of MKKKQVMLALTAAAGLGLTALHSAPAGKAAPL, the AmyQ secretion efficiency was 5.58.
MKSKGSIMACLILFSFTITSTVSATTFINTETISAFSN: the AmyQ secretion efficiency stood at 6.02.
With MPIKKKVMMCLAVMLVFLMMSFPTLTNSGGFKE the figure was 3.23; with MRRVCFLAALIMAFTLPNSVYAQKP, 2.21.
With MTLGGSVSMFLVALTMCGGLFVTPAKAVKT the figure was 3.81; with MLKKVILAAFILVGSTLGRRKRKSRASAKHV, 5.28; with MFKFKKNFLVGLSAALMSIKKKKRRASAAST, 7.19.
In the case of MKKRLIAPMLLSAASLAFFAMSGSSVTAGAQAAAY, the AmyQ secretion efficiency was found to be 6.18.
In turn, MKKKRKKIAGVLTVAAAAMTAKMYATAKGN came in with an AmyQ secretion efficiency of 7.67.
Sequence MLKKKWMVGLLAGCLAAGGFSYNAFTTEN registered an AmyQ secretion efficiency of 6.95.
With MKKVRRATALFLGLTPAGANAADL the figure was 7.17; with MTMLRKIIGWILLLCIIASFIVTPLFAFTVIASGKEV, 7.88.
As to MKKKRRKLALTAAAGLGLTALHSAPAAKAAPL, the AmyQ secretion efficiency turned out to be 2.69.
Consider MKLKKRVSMFLVALTMCGGLFVTPCKAVKT, for which the AmyQ secretion efficiency came out at 2.35.
With MKKLRKKKKKGLLTVSIASPSFAAEK, the AmyQ secretion efficiency is 7.52.
In the case of MKTKTLFIFSAILTLSIFAPNEAFAQTA, the AmyQ secretion efficiency was 1.47.
As to MKKRRLLAAGIIGLLTVSIASPSFAAEK, the AmyQ secretion efficiency is 2.29 and 2.73.
In the case of MKKQIITATTAVVLGSTLFAGAASAKRK, the AmyQ secretion efficiency was found to be 2.25.
As for MKKQIITATTAVVLGSTLFAEDDDDEASAQSI, the figure is 3.86; as for MRKTIFAFLTGLMMFGTITAASRSPD, 6.51.
As for MFNRLFRVCFLAALIMAFTLPNSVYKQKP, the figure is 6.24; as for MKKIITATTAVVLGSTLFAGAASAQSI, 2.35; as for MGMKKKLSLGVASAALGLALVGGGTWFAFN, 7.33.
With MKRIRIPMTLALGAALTIAPLSFASYEEN the figure was 6.51.
As for MKKLLAAGIIGLLTVSIASPTFAAEK, the AmyQ secretion efficiency was 2.52.
For MKIRKQRGYTGLSFGMLISAVPALAAGT, the AmyQ secretion efficiency was determined as 6.92.
As for MKRMIVRMTLPLLIVCLAFSKDSASARAASE, the AmyQ secretion efficiency came out at 1.93.
With MSSTITFVLTMCFLGLILFVPTALADNS the figure was 2.16.
